The record followed here is patent US20250043012A1.

By koff is commonly meant the rate constant with which the complex falls apart. In general, kon refers to the rate constant with which the complex forms. A higher kon goes with faster complex formation.

In the assay the target is human EGFR (protein used in SPR, ELISA and BLI) (human) (UniProt P00533). Put plainly: SPR. For orientation: SPR reads the build-up and loss of mass on a sensor chip optically.

B1: ER-2b (antibody, part only; not given: Constant region, common trastuzumab light chain, part only)
heavy chain, part: EVQLVESGGGLVQPGGSLRLSCAASGFNIYYAAMHWVRQAPGKGLEWVAFISPYYSYTSYADSVKGRFTISADTSKNTAYLQMNSLRAEDTAVYYCARYFHSSWYESSSPRAYYPGMDYWGQGTLVTVSS
B1 returned a koff of 5e-05 s⁻¹ and an association rate constant (kon) of 280000 M⁻¹ s⁻¹.
